Test results reported in the supplement of paper PMC9732359.
± gives the uncertainty stated by the source.

Experiment: protein stability index of a GFP-peptide fusion (yeast GPS) (PSI 1-4); higher = more stable; sorted into four equal gates, so the index is relative within each strain
In short: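 Peptides tiling yeast proteins in 17-residue segments were fused downstream of GFP, with Cherry expressed from the same plasmid. As a pooled library in yeast, mid-log cultures grown in leucine-free medium were sorted into four equal gates by GFP/Cherry fluorescence ratio. Gate plasmids were PCR-amplified and Illumina-sequenced, and barcodes linked reads to strains. Each peptide received a protein stability index equal to the sum of each gate's read frequency times its gate number.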

KSPPQFFYNISSIHWNN [SIN4]
protein stability index (doa10∆): 2.15 ± 0.042 | protein stability index (pdr5∆): 1.89 ± 0.039 | protein stability index (san1∆): 2.17 ± 0.065 | protein stability index (ubr1∆): 2.11 ± 0.042

KNTSSMDFLNSMENTPK [GAL11]
protein stability index (doa10∆): 1.83 ± 0.059 | protein stability index (pdr5∆): 1.67 ± 0.06 | protein stability index (san1∆): 2.33 ± 0.12 | protein stability index (ubr1∆): 3.02 ± 0.047

ECSKDMKEDGLSFVDIV [SIR4]
protein stability index (doa10∆): 2.75 ± 0.17 | protein stability index (pdr5∆): 3.39 ± 0.1 | protein stability index (san1∆): 3.1 ± 0.088 | protein stability index (ubr1∆): 3.03 ± 0.065

KIIPKDISATQLPKQLW [ITC1]
protein stability index (doa10∆): 2.22 ± 0.11 | protein stability index (pdr5∆): 2.43 ± 0.14 | protein stability index (san1∆): 2.45 ± 0.12 | protein stability index (ubr1∆): 2.32 ± 0.13

WNWAKQSLLSLYFEIIH [FAS2]
protein stability index (doa10∆): 1.7 ± 0.06 | protein stability index (pdr5∆): 1.46 ± 0.057 | protein stability index (san1∆): 1.76 ± 0.15 | protein stability index (ubr1∆): 1.4 ± 0.072

DRHIGCAMSGLTADARS [PUP2]
protein stability index (doa10∆): 2.67 ± 0.096 | protein stability index (pdr5∆): 3.08 ± 0.12 | protein stability index (ubr1∆): 2.69 ± 0.07

LQKQMGIGSLTDLMSIV [RPC34]
protein stability index (doa10∆): 1.91 ± 0.11 | protein stability index (pdr5∆): 2.04 ± 0.13 | protein stability index (san1∆): 2.68 ± 0.12 | protein stability index (ubr1∆): 1.86 ± 0.14

YFLVLSPYGNLQNDLIH [RPN5]
protein stability index (doa10∆): 1.92 ± 0.091 | protein stability index (pdr5∆): 2.42 ± 0.1 | protein stability index (san1∆): 2.64 ± 0.089 | protein stability index (ubr1∆): 2.67 ± 0.14

KDSYVRIANIEQNHLDN [YDL088C/ASM4]
protein stability index (doa10∆): 3.12 ± 0.14 | protein stability index (pdr5∆): 3.43 ± 0.28 | protein stability index (san1∆): 3.05 ± 0.13 | protein stability index (ubr1∆): 3.18 ± 0.13

ENDLLQEFDSELSKEEK [SMC3]
protein stability index (doa10∆): 2.74 ± 0.3 | protein stability index (ubr1∆): 3.03 ± 0.27

GAKFENIVHNFKERQMM [AAR2]
protein stability index (doa10∆): 3.32 ± 0.081 | protein stability index (pdr5∆): 2.71 ± 0.096 | protein stability index (san1∆): 2.76 ± 0.089 | protein stability index (ubr1∆): 3.04 ± 0.11

PLRDNGLLDESPNRLRV [YML031W/NDC1]
protein stability index (doa10∆): 3.2 ± 0.14 | protein stability index (pdr5∆): 3.03 ± 0.1 | protein stability index (san1∆): 3.15 ± 0.08 | protein stability index (ubr1∆): 3.39 ± 0.074

GIRGKLVTIEGALIHKA [SMC1]
protein stability index (doa10∆): 3.33 ± 0.2 | protein stability index (pdr5∆): 2.95 ± 0.17 | protein stability index (san1∆): 2.88 ± 0.13

KGVLLYGPPGTGKTLLA [RPT4]
protein stability index (doa10∆): 2.51 ± 0.045 | protein stability index (pdr5∆): 2.58 ± 0.041 | protein stability index (san1∆): 2.57 ± 0.048 | protein stability index (ubr1∆): 2.29 ± 0.035

DLKRFVDESLLSTLPAG [QCR2]
protein stability index (doa10∆): 3.02 ± 0.067 | protein stability index (pdr5∆): 3.23 ± 0.085 | protein stability index (san1∆): 2.52 ± 0.099 | protein stability index (ubr1∆): 3 ± 0.051

YSQSPPRSPGRSPTRRL [SMC4]
protein stability index (doa10∆): 2.57 ± 0.15 | protein stability index (pdr5∆): 3.19 ± 0.11 | protein stability index (san1∆): 2.98 ± 0.089 | protein stability index (ubr1∆): 3.04 ± 0.11

EEKEESNLAATKSMVKI [RPN11]
protein stability index (doa10∆): 3.43 ± 0.12 | protein stability index (pdr5∆): 3.41 ± 0.11 | protein stability index (san1∆): 3.34 ± 0.059 | protein stability index (ubr1∆): 3.35 ± 0.098

STEETTANTGTIGKRRT [TAF14]
protein stability index (doa10∆): 3.07 ± 0.13 | protein stability index (pdr5∆): 3.27 ± 0.1 | protein stability index (san1∆): 3.38 ± 0.088 | protein stability index (ubr1∆): 2.77 ± 0.12

EAQDEASLQQQQQQDLQ [SNF6]
protein stability index (doa10∆): 3.27 ± 0.14 | protein stability index (pdr5∆): 3.15 ± 0.1 | protein stability index (san1∆): 3.12 ± 0.073 | protein stability index (ubr1∆): 3.2 ± 0.18

AAELLDKRIVISIDSWP [DIS3]
protein stability index (doa10∆): 1.61 ± 0.062 | protein stability index (pdr5∆): 1.87 ± 0.09 | protein stability index (san1∆): 1.55 ± 0.14 | protein stability index (ubr1∆): 1.95 ± 0.072

LQYIIHDTLNNEIANSI [BRR2]
protein stability index (doa10∆): 2.67 ± 0.057 | protein stability index (pdr5∆): 2.69 ± 0.076 | protein stability index (san1∆): 2.86 ± 0.077 | protein stability index (ubr1∆): 2.76 ± 0.056

TIHRSFTICLNDRNPRL [CSN12]
protein stability index (doa10∆): 2.82 ± 0.065 | protein stability index (pdr5∆): 2.76 ± 0.063 | protein stability index (san1∆): 2.72 ± 0.069 | protein stability index (ubr1∆): 2.65 ± 0.043

YKKSTENESTNYQYKIQ [MED7]
protein stability index (doa10∆): 2.58 ± 0.046 | protein stability index (pdr5∆): 2.48 ± 0.045 | protein stability index (san1∆): 2.41 ± 0.055 | protein stability index (ubr1∆): 2.59 ± 0.035

TIYNLQHHVTDADKLSF [YML031W/NDC1]
protein stability index (doa10∆): 1.94 ± 0.04 | protein stability index (pdr5∆): 2.33 ± 0.053 | protein stability index (san1∆): 1.98 ± 0.061 | protein stability index (ubr1∆): 2.06 ± 0.04

YKNHELLKLERKKTEAV [SNF2]
protein stability index (doa10∆): 3.14 ± 0.081 | protein stability index (pdr5∆): 3.17 ± 0.074 | protein stability index (san1∆): 3.08 ± 0.05 | protein stability index (ubr1∆): 3.13 ± 0.064

NSIYCPTQTVAELDLMS [RPN6]
protein stability index (doa10∆): 2.55 ± 0.071 | protein stability index (pdr5∆): 1.72 ± 0.071 | protein stability index (san1∆): 1.39 ± 0.11 | protein stability index (ubr1∆): 1.53 ± 0.074

WGMEPLEDYVPHQSPDA [RPB2]
protein stability index (doa10∆): 2.85 ± 0.11 | protein stability index (pdr5∆): 3.3 ± 0.13 | protein stability index (san1∆): 2.98 ± 0.081 | protein stability index (ubr1∆): 2.98 ± 0.076

LRELDVELIESKINELS [SMC4]
protein stability index (doa10∆): 3.37 ± 0.096 | protein stability index (pdr5∆): 3.47 ± 0.077 | protein stability index (san1∆): 3.38 ± 0.073 | protein stability index (ubr1∆): 3.35 ± 0.047

SKINELSYYVEETNVDI [SMC4]
protein stability index (doa10∆): 3.28 ± 0.17 | protein stability index (pdr5∆): 2.98 ± 0.15 | protein stability index (ubr1∆): 2.99 ± 0.15

EIDTILSTLRMEADPSL [RPN9]
protein stability index (doa10∆): 3.04 ± 0.24 | protein stability index (pdr5∆): 3.04 ± 0.21 | protein stability index (san1∆): 2.56 ± 0.13 | protein stability index (ubr1∆): 2.67 ± 0.087

VHDKILEDLVFPTEIVG [RPS7A]
protein stability index (doa10∆): 3.3 ± 0.13 | protein stability index (pdr5∆): 3.15 ± 0.076 | protein stability index (san1∆): 3.27 ± 0.061 | protein stability index (ubr1∆): 3.31 ± 0.1

SHTQNIGHLIKTRFKGS [SMC2]
protein stability index (doa10∆): 2.94 ± 0.11 | protein stability index (pdr5∆): 1.98 ± 0.086 | protein stability index (san1∆): 1.96 ± 0.13 | protein stability index (ubr1∆): 2.27 ± 0.066

KRRKTHIHKHVKDEAFD [RET1]
protein stability index (doa10∆): 2.87 ± 0.11 | protein stability index (pdr5∆): 3.23 ± 0.12 | protein stability index (san1∆): 2.92 ± 0.095 | protein stability index (ubr1∆): 3.1 ± 0.1

PSTNAQNVNVPSAFNFT [YOR098C/NUP1]
protein stability index (doa10∆): 2.6 ± 0.046 | protein stability index (pdr5∆): 2.73 ± 0.054 | protein stability index (san1∆): 2.67 ± 0.041 | protein stability index (ubr1∆): 2.75 ± 0.045

TQLDKLRPRKDSKDGTT [SMB1]
protein stability index (doa10∆): 2.26 ± 0.28 | protein stability index (pdr5∆): 2.15 ± 0.28 | protein stability index (ubr1∆): 1.77 ± 0.2

DQKPIEHIKEGSEIAIS [SWI3]
protein stability index (doa10∆): 2.93 ± 0.058 | protein stability index (pdr5∆): 3.21 ± 0.069 | protein stability index (san1∆): 2.87 ± 0.064 | protein stability index (ubr1∆): 2.92 ± 0.04

FEQKGSQTTTNDSKEES [YLR335W/NUP2]
protein stability index (doa10∆): 3.27 ± 0.12 | protein stability index (pdr5∆): 3.13 ± 0.077 | protein stability index (san1∆): 2.98 ± 0.11 | protein stability index (ubr1∆): 3.23 ± 0.05

LVSDSEIIDLNLHSFTK [POP6]
protein stability index (doa10∆): 2.62 ± 0.072 | protein stability index (pdr5∆): 2.81 ± 0.069 | protein stability index (san1∆): 2.31 ± 0.07 | protein stability index (ubr1∆): 2.71 ± 0.048

HLGLDDPQDVFNYNIFM [SIR2]
protein stability index (doa10∆): 2.99 ± 0.087 | protein stability index (pdr5∆): 3.2 ± 0.14 | protein stability index (san1∆): 3.24 ± 0.13 | protein stability index (ubr1∆): 3.26 ± 0.078

QLLMGDIPELSFFHQSN [RPN3]
protein stability index (doa10∆): 2.43 ± 0.067 | protein stability index (pdr5∆): 2.2 ± 0.054 | protein stability index (san1∆): 2.39 ± 0.077 | protein stability index (ubr1∆): 2.62 ± 0.039

ELTIIKNPRVTKEYLVQ [CSN9]
protein stability index (pdr5∆): 3 ± 0.3 | protein stability index (san1∆): 3.15 ± 0.11 | protein stability index (ubr1∆): 3.35 ± 0.091

DTSYKIDGKTVSYKDYS [SMC1]
protein stability index (doa10∆): 2.6 ± 0.049 | protein stability index (pdr5∆): 2.79 ± 0.042 | protein stability index (san1∆): 2.58 ± 0.046 | protein stability index (ubr1∆): 2.95 ± 0.04

SIQEQIQEFQGNPYIEL [SNF5]
protein stability index (doa10∆): 3.16 ± 0.071 | protein stability index (pdr5∆): 3.3 ± 0.08 | protein stability index (san1∆): 3.49 ± 0.082 | protein stability index (ubr1∆): 3.31 ± 0.059

DYPSTSLDIRHDFIKGL [NUT1]
protein stability index (doa10∆): 2.9 ± 0.14 | protein stability index (pdr5∆): 2.88 ± 0.076 | protein stability index (san1∆): 3.14 ± 0.057 | protein stability index (ubr1∆): 2.56 ± 0.062

LFGSSNNNNNNNNSNNI [YGL172W/NUP49]
protein stability index (doa10∆): 2.93 ± 0.077 | protein stability index (pdr5∆): 2.33 ± 0.056 | protein stability index (san1∆): 2.53 ± 0.086 | protein stability index (ubr1∆): 2.6 ± 0.097

KVVYIQRRSWRQYVGQL [DIS3]
protein stability index (pdr5∆): 3.51 ± 0.17 | protein stability index (san1∆): 3.02 ± 0.12

IPPDQQRLIFAGKQLED [RPS31]
protein stability index (doa10∆): 2.92 ± 0.077 | protein stability index (pdr5∆): 2.73 ± 0.06 | protein stability index (san1∆): 3.18 ± 0.038 | protein stability index (ubr1∆): 3.16 ± 0.035

PSYYYYVDPETTYTYQQ [ROX3]
protein stability index (doa10∆): 2.93 ± 0.075 | protein stability index (pdr5∆): 3.09 ± 0.079 | protein stability index (san1∆): 2.85 ± 0.053 | protein stability index (ubr1∆): 3.16 ± 0.07

DPVLDWRKSDRELTKNI [SIR4]
protein stability index (doa10∆): 2.89 ± 0.096 | protein stability index (pdr5∆): 2.2 ± 0.083 | protein stability index (san1∆): 2.52 ± 0.16 | protein stability index (ubr1∆): 2.26 ± 0.08

CSKAMGDLASLVLLNGR [RPP1]
protein stability index (doa10∆): 2.84 ± 0.061 | protein stability index (pdr5∆): 2.9 ± 0.05 | protein stability index (san1∆): 2.62 ± 0.058 | protein stability index (ubr1∆): 2.73 ± 0.037

AIPSRMTVAHLIECLLS [RPB2]
protein stability index (doa10∆): 1.39 ± 0.098 | protein stability index (pdr5∆): 1.85 ± 0.094 | protein stability index (san1∆): 1.39 ± 0.25 | protein stability index (ubr1∆): 1.67 ± 0.09

HLIPNEIKGASETPLQK [RPN4]
protein stability index (pdr5∆): 1.57 ± 0.12 | protein stability index (san1∆): 1.55 ± 0.13 | protein stability index (ubr1∆): 1.91 ± 0.11
